This passage reports IC50 (nM) against 0.476 nM FLT3L, ERK phosphorylation in CD133+ stem cells, IC50 (nM) against 0.476 nM FLT3L, MEK phosphorylation in CD133+ stem cells and IC50 (nM), inhibition of FLT3 downregulation on RS4;11 cells results from patent publication US20230056815A1.

Common to all, as to experiment: cell-based or functional assay
Test [1] deals with human soluble FLT3L (recombinant huFLT3L) (human) (UniProt P49771).
The target of test [2] is cynomolgus monkey soluble FLT3L (cynomolgus monkey).
Test [3] has as its target mouse soluble FLT3L (mouse) (UniProt P49772).

Chain of human soluble FLT3L (recombinant huFLT3L) (human) (P49771 27-184): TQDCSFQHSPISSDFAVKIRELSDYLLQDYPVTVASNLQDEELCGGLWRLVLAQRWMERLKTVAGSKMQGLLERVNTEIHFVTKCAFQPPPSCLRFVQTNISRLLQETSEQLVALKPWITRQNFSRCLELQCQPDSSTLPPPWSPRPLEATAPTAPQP
Chain of mouse soluble FLT3L (mouse) (P49772 27-189): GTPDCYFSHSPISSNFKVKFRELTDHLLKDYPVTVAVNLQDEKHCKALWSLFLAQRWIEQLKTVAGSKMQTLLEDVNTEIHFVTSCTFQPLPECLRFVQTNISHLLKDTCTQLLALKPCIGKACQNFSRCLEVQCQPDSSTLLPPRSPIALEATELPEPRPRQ

With “commercially available mouse anti-human FLT3L monoclonal antibody (MAB608, R&D Systems)”, in test [1], the IC50 (nM) against 0.476 nM FLT3L, ERK phosphorylation in CD133+ stem cells was found to be 0.19 nM; the IC50 (nM) against 0.476 nM FLT3L, MEK phosphorylation in CD133+ stem cells is 0.19 nM; the IC50 (nM), inhibition of FLT3 downregulation on RS4;11 cells came out at 0.04 nM. Besides, the IC50 (nM), inhibition of FLT3 downregulation on RS4;11 cells in test [2] was found to be 0.1 nM. Moreover, the IC50 (nM), inhibition of FLT3 downregulation on RS4;11 cells in test [3] is 0.12 nM.
